Source: US20210101932A1 (Bicycle, published 2021)
*1 amine or outer side, *2 acyl side, *3 side chain or, on linkers, in order; H or OH if unused. Bridges are numbered along the chain shown (N, C = ends). Where no end group is shown, it is not given here. [ ]: non-standard residue; d: D form. TATA = O=C(CC[*:1])N1CN(C(=O)CC[*:2])CN(C(=O)CC[*:3])C1; hArg = N=C(N)NCCCC[C@H](N)C(=O)O; Aad = N[C@@H](CCCC(=O)O)C(=O)O; Chg = N[C@H](C(=O)O)C1CCCCC1; Nle = CCCC[C@H](N)C(=O)O; Nva = CCC[C@H](N)C(=O)O; Aib = CC(C)(N)C(=O)O

The binders below were run against T1, Recombinant human PD-L1 (Sino Biologicals or R&D systems), biotinylated (human, UniProt Q9NZQ7 19-238, limits assumed, biotinylated with EZ-Link Sulfo-NHS-LC-LC-Biotin) (assay: SPR (Biacore), biotinylated PD-L1 on streptavidin chip).
T1 construct: captured on a streptavidin CM5 chip for SPR; also called human PD-L1 protein; Biotinylated PD-L1
T1 sequence (Q9NZQ7 19-238 limits assumed): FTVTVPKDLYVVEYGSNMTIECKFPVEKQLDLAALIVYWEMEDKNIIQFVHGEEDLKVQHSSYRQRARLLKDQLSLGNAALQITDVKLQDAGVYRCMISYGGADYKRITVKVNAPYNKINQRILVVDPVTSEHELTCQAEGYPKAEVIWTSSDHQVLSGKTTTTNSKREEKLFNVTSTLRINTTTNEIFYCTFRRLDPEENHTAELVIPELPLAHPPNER
Description: Biacore experiments were performed to determine kₐ) (M⁻¹s⁻¹), kd (s⁻¹), KD (nM) values of monomeric peptides binding to human PD-L1 protein. […] The protein was desalted to remove uncoupled biotin using spin columns into PBS. For analysis of binding, a Biacore 3000 instrument was used utilizing a CM5 sensor chip (GE Healthcare). Streptavidin was immobilized on the chip using standard amine-coupling chemistry at 25° C. with HBS-N (10 mM HEPES, 0.15 M NaCl, pH 7.4) as the running buffer. The carboxymethyl dextran surface was activated with a 12 min injection of a 1:1 ratio of 0.4 M 1-ethyl-3-(3-dimethylaminopropyl) carbodiimide hydrochloride (EDC)/0.1 M N-hydroxy succinimide (NHS) at a flow rate of 10 μl/min. For capture of streptavidin, protein was diluted to 0.1 mg/ml in 10 mM sodium acetate (pH 4.5) and captured by injecting 70 μl onto the activated chip surface. Residual activated groups were blocked with a 7 min injection of 1 M ethanolamine (pH 8.5). Biotinylated PD-L1 stock was diluted 1:100 in HBS-N and captured on one flow cell at 5 μl/min to a level of 1000-1300 RU. Buffer was changed to PBS/0.05% Tween 20 and a dilution series of the peptides was prepared in this buffer with a final DMSO concentration of 0.5%. The top concentrations were 200 nM or 500 nM with 6 2-fold dilutions. The SPR analysis was run at 25° C. at a flow rate of Flow rate 50 μl/min with 60 seconds association and 400 seconds disassociation. Data were corrected for DMSO excluded volume effects. All data were double-referenced for blank injections and reference surface using standard processing procedures and data processing and kinetic fitting were performed using Scrubber software, version 2.0c (Biologic Software). Data were fitted using mass transport model allowing for mass transport effects where appropriate.

| Binder | Kd [nM] |
| --- | --- |
| SDKCSAGWLTMCQ[Nle]LHLCA (linker 4-12-18 via TATA) [BCY10068] | 54.5 |
| SDKCS[Nle]GWLTMCQKLHLCA (linker 4-12-18 via TATA) [BCY10062] | 23 |
| SDKCSXGWLTMCQKLHLCA ([Abu] as in SDKCS[Abu]GWLTMCQKLHLCA; Ci, Cii, Ciii cyclised on TATA) [BCY10055] | 27.9 |
| Ac-SEKCS[Aad]GWLTMCLKLHLC (linker 4-12-18 via TATA) [BCY11825] | 28.8 |
| Ac-SEKCS[Aad]GWLTMCLKLHLCPSH (linker 4-12-18 via TATA) [BCY11831] | 13.2 |
| SDKCSAGWLTMCQKXHLCA ([Nle] as in SDKCSAGWLTMCQK[Nle]HLCA; Ci, Cii, Ciii cyclised on TATA) [BCY10071] | 58.2 |
| Ac-KCS[Aad]GWLTMCLKLHLC (linker 2-10-16 via TATA; not fully specified (C-terminus); printed as Ac-KCS[Aad]GWLTMCLKLHLC) [BCY11824] | 60 |
| SDKCSAGWLTMCQK[Nva]HLCA (linker 4-12-18 via TATA) [BCY10084] | 43.2 |
| Ac-SDKCSEGWLTMCQKLHLC (linker 4-12-18 via TATA; not fully specified (C-terminus); printed as [Ac]SDKCSEGWLTMCQKLHLC) [BCY10960] | 9.94 |
| Ac-[hArg]CS[Aad]GWLTMCLKLHLC (linker 2-10-16 via TATA; not fully specified (C-terminus); printed as Ac-[HArg]CS[Aad]GWLTMCLKLHLC) [BCY11827] | 30 |
| Ac-DKCS[Aad]GWLTMCQKLHLCPSH-OH (linker 3-11-17 via TATA; SMILES CSCC[C@@H]1NC(=O)[C@H]([C@@H](C)O)NC(=O)[C@H](CC(C)C)NC(=O)[C@H](Cc2c[nH]c3ccccc23)NC(=O)CNC(=O)[C@H](CCCC(=O)O)NC(=O)[C@H](CO)NC(=O)[C@@H](NC(=O)[C@H](CCCCN)NC(=O)[C@H](CC(=O)O)NC(C)=O)CSCCC(=O)N2CN3CN(C2)C(=O)CCSC[C@@H](C(=O)N2CCC[C@H]2C(=O)N[C@@H](CO)C(=O)N[C@@H](Cc2c[nH]cn2)C(=O)O)NC(=O)[C@H](CC(C)C)NC(=O)[C@H](Cc2c[nH]cn2)NC(=O)[C@H](CC(C)C)NC(=O)[C@H](CCCCN)NC(=O)[C@H](CCC(N)=O)NC(=O)[C@H](CSCCC3=O)NC1=O) [BCY11853] | 17.6 |
| SDKCSAGWLTMCQKL[Aib]LCA (linker 4-12-18 via TATA) [BCY10073] | 15.8 |
| SDKCSAGWLTMC[Chg]KLHLCA (linker 4-12-18 via TATA) [BCY10066] | 14.4 |
| SDKCSAGWLTMCQKLH[Nva]CA (linker 4-12-18 via TATA) [BCY10083] | 75 |
| SDKCSAGWLTMCQKLHXCA ([Nle] as in SDKCSAGWLTMCQKLH[Nle]CA; Ci, Cii, Ciii cyclised on TATA) [BCY10074] | 36.1 |
| SDXCSAGWLTMCQKLHLCA ([HArg] (homoarginine) = X at chain position 3; Ci, Cii, Ciii cyclised on TATA) [BCY10052] | 22.3 |
| SDKCSXGWLTMCQKLHLCA ([Aib] as in SDKCS[Aib]GWLTMCQKLHLCA; Ci, Cii, Ciii cyclised on TATA) [BCY10054] | 31.2 |
| Ac-SDKCS[Aad]GWLTMCLKLHLCA (linker 4-12-18 via TATA) [BCY11828] | 16.6 |
| Ac-EKCS[Aad]GWLTMCLKLHLC (linker 3-11-17 via TATA) [BCY11826] | 18.2 |
| SDKCSAGWLTXCQKLHLCA ([Nle] as in SDKCSAGWLT[Nle]CQKLHLCA; Ci, Cii, Ciii cyclised on TATA) [BCY10058] | 59.7 |
